Results as given in the DeepSol protein solubility set.

Assay: soluble on expression in E. coli; label from the status in PepcDB or PDB records

| Sequence | soluble on expression in E. coli |
| --- | --- |
| MGSDKIHHHHHHMEKSEEKEIICRMFNSPLPHPSQNHLLAALPAMELGDLIPHLELIHMRAGDILCEAGDQLPYAYFPASAIISLHYILENGASSEIANVGREGMLGVSLFMGGETSSNWATVQIPGFAYRLKAAFLSQELKRGGQLQWILLRYSQALITQIAQIGVCNRYHTIEQQLCRWFLLTLDRLDSSELSMTQELIANALGVSRESVAGVAGKLQGRGIIRYQRGHITVLNRTGLETGACECYETIKKEFDDALDDVRKPTLHQGDQSSKTLPLL | not soluble |
| MTGDKEIITMTFKIWQIGLHLQQQEAAAVAIVRGAKECFLQRWWRLPLAHDIIKDGRIVDAQQLAKTLLPWSRELPQRHHIMLAFPASRTLQRSFPRPSMSLGEREQTAWLSGTMARELDMDPDSLRFDYSEDSLSPAYNVTAAQSKELATLLTLAERLRVHVSAITPDASALQRFLPFLPSHQQCLAWRDNEQWLWATRYSWGRKLAVGMTSAKELAAALSVDPDSVAICGEGGFDPWEAVSVRQPPLPPPGGDFAIALGLALGKAY | not soluble |
| MGSDKIHHHHHHMSVPRWVAERTGLPRTAHDAGTIGAAGCTVNRFAVALMPDSGGHPRKPIAGVDAPPPHLLLVARRMTRPGEHMALTTYTPVITVFAAGREWTLERAADLQTLWDNMVEADFGDDERLPYWTELWPSSLVLADWLHDNAGRIRGRTCLDMGCGLGLCSLVGQWLGARVTGMDYEPEALFHARRNAERNRVPQPLWTVMDWRAPAVRRHAADLVWGGDIMYERRFVTPVLDFLDHVLAPCGAAWVAEPGRTVYNHFRETLDARGWHARRVLSSETASLYEQPESVTVHLWEITR | not soluble |
| MFPRALAIGTPAQHKATEAPVTSTSASGLARFNTLEETAALAELHEACAATAWARHLLAARPFATAEDLYAASDAAMAELSAEDLAEAMAGHPPIGRPKPGDATSSREQAGMAGAAEELKAEMLELNLAYQDKFGHVFLICATGRTGEQMRDAALERIGNSPEQEREIVRTELGKINRIRLTRLVEQDARPAAALEHHHHHH | soluble |
| MSLKNTTIADVAAAADVSVTTVSRYLNGNYQKMSAATKQRIKETIATLHYAPKASARKMRQDHSQLIGVVVGDIANVFSSLLFKGIYDVLQPAGYDVLLMNANNTATTEHGELTRLAAQQVDGIILQPSAATAAAYAGLTIPTIIVDRQLPNSPLAQVLSSNFDASYQLGQHLREQGYRRLITVGRAVAPHTAQTDRLAGLTATGLSVIHLDMTSHGAPWLTQQLRQYQQAPDKPVIISLMGPLLFEILASLKAAHLHFPADVGLVSFDDWQWSQYVNDGIYLLQQQPALMGQLAATTLLHQLSTTPTTMTQYVPVAPVVKPSLEGHHHHHH | not soluble |
| MAHHHHHHMSSQAQQRAPAYAPRDTHAERLAAADREAAARRDSSTNWTWYPEYHLAPYMGWMNDPTGLVHFRDHYHVFYQYHPYSAEWGPMHWGHMTSEDLVHWQHEKVALAPGDACDRNGCFSGTAVVHEDRMYVFYTGHFALDAATPSNPDAIFEQQCVAVSSDGVNFEKLGAVVRPPPGYVHFRDPKVWQQDGRWWMVCGARDVTKDLGQLLLFTTEDLLKWDDTNWQVLGMTEDKNVFMWECPDYFTIGSREDMKLLLFCPQGKKASEYNYRNRFQNGYTVGQWMPGGPWTVQREFRELDRGHDFYAAQTFLAADGQRRMLMAWCNMWESPMPTKQYGWSGCLTLPRELSYNEATGQLCMLPARELVGLRTPEMMIVPSLLVENNSDAQILENCTAYELDIAFNMETSTAEKYGLWLGSGAELYVDAQSKRLVLNRHYPQHMLSGYRSCELPIGLLLQLHVFIDRSSIEVFVNNGEATFSSRVFPDEGDRALRVFSVNGTADMVGGTMWKLKATVRH | not soluble |
| MKIAAIYTQSVGPLPDGEIRFENDWSGEIESNVLITGPNGCGKSTLLRAISLLWRAFGHWLGTGTRLNIKDESYTWFYRWDASCAMILDSFSPKSEDQIGLFLGSEAFLVQLKEKYPQVYWLGETVSRTKGTTPETTVFTSSEHFFLPYKNWWSHWSSQYQRLVLKGPSVDMPNLVYLDAEARRWVRPQKDIGSLSPDDSTQAWLATYEVNDNWKGQLESSLFNMKATMPGEYPEMIATLNQFFSGKRIEAEIHPGQRQRVLLDSGNDHSLDALSSGEHQVLIMLFTVQRWLQPGGVVLIDEPDLHLHPSLISPLLASIENIVARKNGQLVMTSHATDIWQRYDNMGLRIDLTDGKDAENGQRLEHHHHHH | soluble |
| DLSKNSDVAYLWCSSNKLTSLNLSGVKGLSVLVCHSNQIAGEEMTKVVNALPTLSPGAGAQSKFVVVDLKDTDEKNICTVKDVEKAKSKNWRVFDFNGDSDNMLPYEGSPTSNLAVDAPTVRIYPNPVGRYALVEIPESLLGQEAALYDMNGVKVYSFAVESLRQNIDLTHLPDGTYFFRLDNYTTKLIKQ | not soluble |
| MPKNTPIIRSLLDTDLYKFTMLQVVLHQFPAAHGEYEFRCRNHPDTPLTQLKQQLETQLDLLCELRFSQDELDYLRGLRFIKSDYVDYLELFHLQRRFISVSEEGEQLAIRIKGPMVQAMFFEIFVLAIVNELYFRPLDSKAVREEGRRRLEAKLAELERFQREEAPGQRFPLLIADFGTRRRFSRDWQAHVVERLNHALPQVFRGTSNVYLARKLGITPIGTMAHEFFQAFQALGVRLRDFQKAALESWVQEYRGDLGIALTDVVGMDAFLADFDLYFAKLFDGLRHDSGDPYIWGEKAIAHYRKLRIDPATKMLTFSDGLSVDSALQLQRHFSPHIQVSFGIGTHFTNDMGLEPLQIVLKLVSCNGQPVAKLSDSPGKTMCSDETFLAYLRQVFKVPALALEHHHHHH | soluble |
| MGSDKIHHHHHHMLRFVMNDDQQSCLVSRLSRFVALTEAECAFIAEMEKDEHERRKGRPVVQVGDPTEGIMVLKSGWAVVKADSSDGRSQILRVYLPGEVMGLAEIGSSHANHRIIMQTDGKICPFPRAGLAPLYSDYPRLGALLTAVGSLDQIALRHHASSLGAMDATGRLKFWLLQLRSRLEVANVGLGNRFRVPFSQVEIGQAVGLTSIYVNKLLRRFMDDGDLEIERPYFRLLNREQWERDCEYVNPFVDMDTSWFPPAYPEIHDSAP | not soluble |
| MPIQRREFIAAIGTGALATTAGCAQSGEGSGQTEAETEAESGGGGQPGVAGETLTLTTTTSTYDTGLLDEIHPDFEDMYGVSVDAVAQGTGAALESARNGDSDIVMVHARGLEDDFMRNGYGINRRDLMFNDFVIVGPEDDPAGIQGMGSATEALTTIAESESQFVSRGDNSGTHTKELNLWEAAGTEPGGNWYQETGTGMGEALNIANQQGAYTLSDRGTYISQRSEIDLVILVQGPIEDGPEILANPYGIMAVNPGVHDNANYDLAMAYIGWITSPGTQDAISNYQVNGEQLFFPEAVSEDPNFQQYVPEGWSSDAGE | not soluble |
| MSQQHDYVIGKNAVIETLKSDRKLYKLWMAENTVKGQAQQVIELAKKQGITIQYVPRKKLDQMVTGQHQGVVAQVAAYEYAELDDLYKAAEEKNEQPFFLILDELEDPHNLGSIMRTADAVGAHGIVIPKRRAVGLTTTVAKASTGAIEHIPVARVTNLARTLEEMKERGIWVVGTDASAREDFRNMDGNMPLALVIGSEGKGMGRLVKEKCDFLIKLPMAGKVTSLNASVAAGLLMYEVYRKRNPVGE | not soluble |
| MNLGLCMADPDFGVYHHSSREESERLRYMARIMFTEAFGKIGIDQDADMNIIDVGCGLGFLTILCADYFKNSRITAIDTFSMGSLKDNSRERLIENLRLADVLDRVTVVEADITKPFNIEDKFDLAVSNLVFHNTGRQRFSVYRNVWNVLKCGSYFINADGFIRKNVASIFVDPFRADMSKISSMYEPEFAMEPKDQKRNAVWRYILVGLRSKCSDV | not soluble |
| MGSDKIHHHHHHMSAFWPFRLTTGCNVNLKFLETFIWVAKLRSFSLAADKLHSTQAAISSRISVLEQELGAKLFTREPKGVALTRAGERVLQHAEQVNESMTRLYASLQDEKFAFGTIRIGAMDSAIHSWFVNFVSDVMHYYPNLDIEVTSETALNLNEQLRRGMLDMVIQTDMLRDETIRSIEVLELSMGWVAAANSPIVSQEAYDTPTAALRGLGRERLITYSRHSRPHQDLLRLMQSYGIGESRVSCVNSVAAMIQLTQAGFGVAAMPPALVPELLNSGVLRQLEGLEAPPPLPFVIAWRSGTNWTERLVEVAVETVSKYAARLGQDAARLVV | not soluble |
| MAAQLDPSSEFAALVKQLQREPDNPGLKQAVVKRLPEMQLLAKTNSLALFRLAQVYSPSSSQHKQMILQSAAQGCTNAMLSACEILLKSGAANDLITAAHYMRLIQSSKDSYIIGLGKKLLEKYPDFAEELKSKEVPYQSTLRFFGVQSESNKENEEKIINRPTV | not soluble |
| VNTFSVSRLALALAFGVTLTACSSTPPDQRPSDQTAPGTSSRPILSAKEAQNFDAQHYFASLTPGAAAWNPSPITLPAQPDFVVGPAGTQGVTHTTIQAAVDAAIIKRTNKRQYIAVMPGEYQGTVYVPAAPGGITLYGTGEKPIDVKIGLSLDGGMSPADWRHDVNPRGKYMPGKPAWYMYDSCQSKRSDSIGVLCSAVFWSQNNGLQLQNLTIENTLGDSVDAGNHPAVALRTDGDQVQINNVNILGRQNTFFVTNSGVQNRLETNRQPRTLVTNSYIEGDVDIVSGRGAVVFDNTEFRVVNSRTQQEAYVFAPATLSNIYYGFLAVNSRFNAFGDGVAQLGRSLDVDANTNGQVVIRDSAINEGFNTAKPWADAVISNRPFAGNTGSVDDNDEIQRNLNDTNYNRMWEYNNRGVGSKVVAEAKK | soluble |
| MPLSKRRAAGRINGLKGPPAKKRKEIERHEALLMHPLAYTAEQYEQVAEESKFYKNCFETTAAENVELLKSNDQLKKELELLKNQQGNQLKVDMKFKSQIESTRQSNMTLLREREIWQNRYYDVLAEKLALSARVKSMMGDIVESVEVPNDSNGNTWELREDLEIDRSARRKTEEEPKAQKMNSTRGSLPRNQCSTRSNNQTPNEMLLKMAIGLDTTSVN | not soluble |
| MGSDKIHHHHHHMLLTRTQIRRLVYAHGREILEHDHMAIERVCYQHGVVTTFAHSIRVACLSVWLADRLHLWNRVDLRSLIRAALLHDYFLYDWHDWDNGTHRLHGFTHGETAMRNAIRDFKLNQIERDSIEHHMFPLTPYPPKYIEGYLVTAADKISATKETLSFDRFDKPASEQPTDRS | not soluble |
| MGSDKIHHHHHHMTLSEYLQQLTQFKTIEELWRAHVQQMSRYGFDRLLYGYTLFKTRTSLGDPDDFVILTNHCPEYLQGFLADGLYAHAPMLTWALENEGHASWRVSQEMAAQGLLDKQARKVQDFNQSMGVHAGYTISFNSASERFKGAISLAARADLDQDGIDQIWAEHGADIVLMNNVAHLKILTLPYHAPKRGLTKRQREVLQWVGDGKTTQDIALLMGLTPATIEKHLRLARATLSVETTAQAVLKAALHNQMYAVEH | not soluble |
| MNNHNCFLTPLQQKFMQILSDYERDPKSIQIHEESDQMDVVISYFKLLLAEKSRLLQYGQANFSVHLIDEEIGRLFMAPISMADIGILEECGREALRFTDLGAMFSDSDDSMHSDEDEVTLTESIRIPVETYPTYNFIGRIIGPRGTTAKQLEKDTGCRIMIRGNHSNKMYGNALHKTHGDGSQDAIDLPLRVIVETSGPRREATARITAALETVQVLLVPPPDGRDELKRRQLVELAIMNGTYRPSCSRIDHN | not soluble |
| GPGSMRDLNKRQQKFVCGCLGITSWDGKDIPFYVETMPKINDVVWVKITQVNDTSAVVQLLEYGKREGIIPYTEVTRRRVRSMGKLIKVGRTEPAQVIRIDKDKGYIDLSKKLVTPNEAKACEAHFRQGNEVRSIVCHVAELCDIPAMDAMEMIAYPLYQREPGKHAWTWLYELNQTEDVERILGPLKLEKAISDCLMLTLKNAMRLKVLTLFAEVEITCFACDGVEAIRDVLILGRSYGEGSDPQIHLSVNIIGPPKYGIRARTDMKEEGIQRMKEAIEAMTAEIKKRGGQLKVVSPPQPHGDADEGKKGFDGEDDDDEDAD | soluble |
